Starred links: 1 amine or outer side, 2 acyl side, 3 side chain; linkers in the order of their positions; H or OH if unused. No end group written: not given here. *: point of attachment. Suc = O=C(CCC(=O)[*:2])[*:1]; For = O=C*
Biological target: murine TLR2/TLR6 (mouse (endogenous in RAW 264.7 and P388.D1)) (UniProt Q9QUN7)
Chain of UniProt Q9QUN7 (Q9QUN7 25-784, chain 1 of 2): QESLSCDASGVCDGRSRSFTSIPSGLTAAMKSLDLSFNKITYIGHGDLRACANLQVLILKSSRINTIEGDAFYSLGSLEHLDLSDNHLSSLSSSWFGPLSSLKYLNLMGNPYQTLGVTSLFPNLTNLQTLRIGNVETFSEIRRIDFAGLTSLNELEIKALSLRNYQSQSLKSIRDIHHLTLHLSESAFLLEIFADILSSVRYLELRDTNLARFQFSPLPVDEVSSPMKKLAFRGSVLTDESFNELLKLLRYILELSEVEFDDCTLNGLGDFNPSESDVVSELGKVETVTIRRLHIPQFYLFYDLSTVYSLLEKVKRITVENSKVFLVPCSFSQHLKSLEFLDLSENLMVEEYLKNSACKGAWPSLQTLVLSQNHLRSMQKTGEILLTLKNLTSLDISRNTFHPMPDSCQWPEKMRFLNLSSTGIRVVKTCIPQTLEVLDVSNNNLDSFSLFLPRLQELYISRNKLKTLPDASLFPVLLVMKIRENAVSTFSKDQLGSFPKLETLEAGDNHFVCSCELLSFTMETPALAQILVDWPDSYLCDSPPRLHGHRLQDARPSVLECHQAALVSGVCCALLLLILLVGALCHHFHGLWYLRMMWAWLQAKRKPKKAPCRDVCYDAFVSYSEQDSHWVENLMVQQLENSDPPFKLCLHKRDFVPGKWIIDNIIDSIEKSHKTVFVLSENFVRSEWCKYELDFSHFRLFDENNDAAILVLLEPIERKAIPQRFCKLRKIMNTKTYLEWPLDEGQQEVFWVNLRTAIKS
Chain of UniProt Q9QUN7 (Q9EPW9 28-795, chain 2 of 2, further chain): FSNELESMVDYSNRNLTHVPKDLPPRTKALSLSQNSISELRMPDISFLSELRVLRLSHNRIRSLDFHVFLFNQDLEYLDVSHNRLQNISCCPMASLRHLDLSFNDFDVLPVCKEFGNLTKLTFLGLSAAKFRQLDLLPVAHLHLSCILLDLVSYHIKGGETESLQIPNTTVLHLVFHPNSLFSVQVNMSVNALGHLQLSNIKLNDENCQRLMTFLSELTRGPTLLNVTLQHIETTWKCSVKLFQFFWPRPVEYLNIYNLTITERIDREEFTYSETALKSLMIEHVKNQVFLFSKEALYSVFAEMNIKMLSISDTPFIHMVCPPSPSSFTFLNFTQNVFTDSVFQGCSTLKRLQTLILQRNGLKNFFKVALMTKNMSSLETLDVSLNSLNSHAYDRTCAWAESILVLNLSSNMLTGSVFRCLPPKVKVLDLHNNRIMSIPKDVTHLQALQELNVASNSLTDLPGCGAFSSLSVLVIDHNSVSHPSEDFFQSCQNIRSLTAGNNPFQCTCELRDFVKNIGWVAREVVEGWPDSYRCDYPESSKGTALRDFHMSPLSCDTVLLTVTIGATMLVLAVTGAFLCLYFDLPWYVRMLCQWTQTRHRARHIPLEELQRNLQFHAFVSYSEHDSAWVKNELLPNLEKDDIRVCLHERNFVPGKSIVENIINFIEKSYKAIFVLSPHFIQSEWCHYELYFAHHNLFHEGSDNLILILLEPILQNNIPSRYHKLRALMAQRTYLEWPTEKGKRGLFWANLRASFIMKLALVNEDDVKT

**Q.** For “-fM-BacSp222 (from UniProt A0A0P0C3P7 2-50) (peptide)”, which TNF in the medium (ELISA) of P388.D1 cells, 1 µM -fM-BacSp222, 6 h, without antagonist is on record?
**A.** Its TNF in the medium (ELISA) of P388.D1 cells, 1 µM -fM-BacSp222, 6 h, without antagonist is 257 pg/mL.

B1: BacSp222 bacteriocin (peptide)
peptide: For-MAGLLRFLLSKGRALYNWAKSHVGKVWEWLKSGATYEQIKEWIENALGWR
**Q.** Which results are given for B1?
**A.** TNF in the medium (ELISA) of P388.D1 cells, 1 µM BacSp222, 6 h, without antagonist: 252 pg/mL; TNF in the medium (ELISA) of RAW 264.7 cells, 1 µM BacSp222, 6 h, without antagonist: 976 pg/mL

B2: suc-K20-BacSp222 (peptide)
peptide: For-MAGLLRFLLSKGRALYNWAK(Suc)SHVGKVWEWLKSGATYEQIKEWIENALGWR
**Q.** What does the source list for B2?
**A.** TNF in the medium (ELISA) of P388.D1 cells, 1 µM suc-K20-BacSp222, 6 h, without antagonist: 213 pg/mL; TNF in the medium (ELISA) of RAW 264.7 cells, 1 µM suc-K20-BacSp222, 6 h, without antagonist: 1280 pg/mL
